This note sets out measurements from patent CN116640222A.

The target in assay [1] is DNP-BSA (UniProt P02769). As to the kind of experiment: BLI, antibody captured on AMC sensor, DNP-BSA in solution. Background: BLI is a label-free optical method that tracks binding on a fibre tip over time.
Assay [2] concerns the target DNP-BSA (UniProt P02769). In words: indirect ELISA, DNP-BSA coated 3 ug/ml, antibody at 125 ng/ml.
In assay [3] the target is DNP-BSA (UniProt P02769). As to the kind of experiment: indirect ELISA, DNP-BSA coated 3 ug/ml, antibody at 62.5 ng/ml. (In general: In an ELISA, binding on a coated surface is turned into a signal by an enzyme label.)
The target in assay [4] is DNP-BSA (UniProt P02769). As to the kind of experiment: indirect ELISA, DNP-BSA coated 3 ug/ml, antibody at 31.25 ng/ml.
Assay [5] concerns the target DNP-BSA (UniProt P02769). As to the kind of experiment: indirect ELISA, DNP-BSA coated 3 ug/ml, antibody at 7.813 ng/ml.
The target in assay [6] is DNP-BSA (UniProt P02769). As to the kind of experiment: indirect ELISA, DNP-BSA coated 3 ug/ml, antibody at 15.625 ng/ml.
Assay [7] concerns the target DNP-BSA (UniProt P02769). As to the kind of experiment: indirect ELISA on DNP-BSA, antibody stored 21 days at 4 C, at 125 ng/ml.
In assay [8] the target is DNP-BSA (UniProt P02769). As to the kind of experiment: indirect ELISA on DNP-BSA, antibody stored 21 days at 37 C, at 125 ng/ml.
Assay [9] concerns the target DNP-BSA (UniProt P02769). In words: indirect ELISA on DNP-BSA, antibody stored 21 days at -80 C, at 125 ng/ml.
The target of assay [10] is DNP-BSA (UniProt P02769). In words: indirect ELISA on DNP-BSA, antibody stored 21 days at 4 C, at 15.625 ng/ml.
Assay [11] deals with DNP-BSA (UniProt P02769). In words: indirect ELISA on DNP-BSA, antibody stored 21 days at 37 C, at 15.625 ng/ml.
The target in assay [12] is DNP-BSA (UniProt P02769). In words: indirect ELISA on DNP-BSA, antibody stored 21 days at -80 C, at 15.625 ng/ml.

Changes are numbered by the printed parent chain.

Usually Kd stands for the free concentration of one partner at which half of the binding sites on the other are occupied at equilibrium, for simple one-to-one binding. Usually koff stands for the rate constant with which the complex falls apart. A high value points to a short-lived complex. Broadly, the kon is the rate constant with which the complex forms. Read a low kon as slower complex formation.

Sequence of UniProt P02769 (P02769 25-607 limits assumed, form in doubt): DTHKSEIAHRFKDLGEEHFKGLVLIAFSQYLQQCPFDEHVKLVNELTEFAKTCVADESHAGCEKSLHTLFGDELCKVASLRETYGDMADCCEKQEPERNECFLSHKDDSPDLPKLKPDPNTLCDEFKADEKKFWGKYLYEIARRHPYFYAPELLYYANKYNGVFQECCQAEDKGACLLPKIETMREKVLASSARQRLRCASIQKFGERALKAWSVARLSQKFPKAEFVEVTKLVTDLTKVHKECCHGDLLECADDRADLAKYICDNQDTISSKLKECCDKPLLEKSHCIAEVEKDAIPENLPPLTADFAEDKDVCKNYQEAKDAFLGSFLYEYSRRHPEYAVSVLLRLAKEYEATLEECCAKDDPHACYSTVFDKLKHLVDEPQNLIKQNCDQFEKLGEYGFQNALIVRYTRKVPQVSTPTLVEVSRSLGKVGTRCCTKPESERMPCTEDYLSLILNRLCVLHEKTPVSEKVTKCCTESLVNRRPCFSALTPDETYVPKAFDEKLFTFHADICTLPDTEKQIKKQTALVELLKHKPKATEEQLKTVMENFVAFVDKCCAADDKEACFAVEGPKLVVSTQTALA

对照 (antibody) came in with a Kd with DNP-BSA [1] of 2.57 nM. Further, the koff in the assay with DNP-BSA [1] worked out at 0.00055 s⁻¹. The molecule further yielded an on-rate constant (kon) in the assay with DNP-BSA [1] of 214000 M⁻¹ s⁻¹. Besides, the OD (450 nm, ref 630 nm) was 2.37 OD in the assay with DNP-BSA [2]; 1.53 OD with DNP-BSA [3]; 0.949 OD with DNP-BSA [4]; 0.229 OD with DNP-BSA [5]; 0.375 OD in the assay with DNP-BSA [6].

B1: Anti-DNP-6G1mut2 (antibody, mouse IgG1, V domains shown)
VH: EVQLQESGPSLVKPSQTLSLTCSVTGDSIITGYWNWIRKFPGNKLEFMGYISYSGRTYYNPSLKSRVSITRDTSKNQYYLQLSSVTTEDAATYYCTRWTTAYFGIDSWGQGISVTVSS
VL: QAVVTQESALTTSPGGTVILTCRSSTGAVTTSNNANWVQEKPDHLFTGLIGGTSNRAPGVPVRFSGSLIGDKAALTITGAQTEDDAMYFCALWYSTHYVFGGGTKVTVLG
Molecule B1 returned a Kd in the assay with DNP-BSA [1] of 0.287 nM. In the assay with DNP-BSA [1], the koff came out at 0.00039 s⁻¹. Also, in the assay with DNP-BSA [1], the kon was determined as 1.36e+06 M⁻¹ s⁻¹. For the same molecule, the OD (450 nm, ref 630 nm) amounted to 2.28 OD with DNP-BSA [2]; 2.17 OD in the assay with DNP-BSA [3]; 1.61 OD with DNP-BSA [4]; 0.516 OD with DNP-BSA [5]; 0.987 OD with DNP-BSA [6].

B2: Anti-DNP-6G1mut1 (antibody, mouse IgG1, V domains shown)
VH: B1 VH
VL: B1 VL with L92I
Molecule B2 showed a Kd in the assay with DNP-BSA [1] of 0.168 nM. For the same molecule, the koff in the assay with DNP-BSA [1] was 0.00042 s⁻¹. Also, the kon with DNP-BSA [1] was found to be 2.5e+06 M⁻¹ s⁻¹. The OD (450 nm, ref 630 nm) in the assay with DNP-BSA [2] stood at 2.25 OD; with DNP-BSA [3] it was 1.95 OD; with DNP-BSA [4] it was 1.69 OD; in the assay with DNP-BSA [5], 0.504 OD; in the assay with DNP-BSA [6] it was 0.96 OD; in the assay with DNP-BSA [7], 2.21 OD. Further, the OD (450 nm, ref 630 nm) with DNP-BSA [8] turned out to be 2.26 OD; with DNP-BSA [9], 2.24 OD; in the assay with DNP-BSA [10] it was 0.991 OD; in the assay with DNP-BSA [11], 0.985 OD; with DNP-BSA [12], 0.977 OD.
